According to patent US20250262210A1 (TRUSTEES OF COLUMBIA UNIVERSITY IN THE CITY OF NEW YORK, published 2025):

Assays:
UBE4B = biological target: T1, UBE4B (human, UniProt O95155 1-1302, limits assumed); experiment: IP/MS, LZTR1 R810W-FLAG, U87
T1 sequence (looked up): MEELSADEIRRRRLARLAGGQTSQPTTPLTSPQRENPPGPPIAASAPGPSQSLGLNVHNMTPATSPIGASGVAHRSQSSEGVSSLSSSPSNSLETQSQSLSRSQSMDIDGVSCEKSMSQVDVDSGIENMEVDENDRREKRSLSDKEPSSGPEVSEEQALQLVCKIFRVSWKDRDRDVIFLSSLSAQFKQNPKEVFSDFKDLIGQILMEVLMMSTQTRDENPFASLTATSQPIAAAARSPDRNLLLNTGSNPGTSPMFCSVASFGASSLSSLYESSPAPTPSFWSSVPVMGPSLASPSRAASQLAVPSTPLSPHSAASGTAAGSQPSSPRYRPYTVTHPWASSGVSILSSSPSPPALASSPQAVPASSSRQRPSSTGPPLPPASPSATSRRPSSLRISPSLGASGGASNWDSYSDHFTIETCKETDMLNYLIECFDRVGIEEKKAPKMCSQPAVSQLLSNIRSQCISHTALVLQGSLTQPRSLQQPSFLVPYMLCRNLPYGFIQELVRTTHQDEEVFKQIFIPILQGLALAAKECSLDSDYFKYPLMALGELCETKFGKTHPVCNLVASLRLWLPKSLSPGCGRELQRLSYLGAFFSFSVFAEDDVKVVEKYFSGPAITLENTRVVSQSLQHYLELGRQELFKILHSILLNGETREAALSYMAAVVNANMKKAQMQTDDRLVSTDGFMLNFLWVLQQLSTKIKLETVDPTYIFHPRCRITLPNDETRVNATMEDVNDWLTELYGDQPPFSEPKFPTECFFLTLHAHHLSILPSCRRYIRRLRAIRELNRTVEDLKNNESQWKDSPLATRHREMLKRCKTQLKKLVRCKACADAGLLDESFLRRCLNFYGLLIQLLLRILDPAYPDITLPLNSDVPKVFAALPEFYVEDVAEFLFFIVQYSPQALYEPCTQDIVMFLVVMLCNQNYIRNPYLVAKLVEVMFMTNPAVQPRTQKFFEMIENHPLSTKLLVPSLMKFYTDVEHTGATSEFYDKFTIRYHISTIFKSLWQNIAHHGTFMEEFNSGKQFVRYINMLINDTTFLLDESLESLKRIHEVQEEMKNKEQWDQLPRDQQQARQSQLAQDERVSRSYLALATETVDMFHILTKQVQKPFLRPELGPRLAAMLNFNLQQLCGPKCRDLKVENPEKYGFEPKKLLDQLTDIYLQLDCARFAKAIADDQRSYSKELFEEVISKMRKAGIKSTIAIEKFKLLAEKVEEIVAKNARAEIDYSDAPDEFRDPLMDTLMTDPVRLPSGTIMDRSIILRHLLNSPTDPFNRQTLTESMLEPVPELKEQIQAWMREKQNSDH
Procedure, shortened: (§1)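 Gel slices were reduced with 5 mM DTT, alkylated with 11 mM IAA and digested overnight at 37° C. with trypsin. Peptides were analysed on an Orbitrap Fusion Tribrid by LC-MS/MS.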

AP4E1 = biological target: T2, AP4E1 (human, UniProt Q9UPM8 1-1137, limits assumed); experiment: IP/MS, LZTR1 R810W-FLAG, U87
T2 sequence (looked up): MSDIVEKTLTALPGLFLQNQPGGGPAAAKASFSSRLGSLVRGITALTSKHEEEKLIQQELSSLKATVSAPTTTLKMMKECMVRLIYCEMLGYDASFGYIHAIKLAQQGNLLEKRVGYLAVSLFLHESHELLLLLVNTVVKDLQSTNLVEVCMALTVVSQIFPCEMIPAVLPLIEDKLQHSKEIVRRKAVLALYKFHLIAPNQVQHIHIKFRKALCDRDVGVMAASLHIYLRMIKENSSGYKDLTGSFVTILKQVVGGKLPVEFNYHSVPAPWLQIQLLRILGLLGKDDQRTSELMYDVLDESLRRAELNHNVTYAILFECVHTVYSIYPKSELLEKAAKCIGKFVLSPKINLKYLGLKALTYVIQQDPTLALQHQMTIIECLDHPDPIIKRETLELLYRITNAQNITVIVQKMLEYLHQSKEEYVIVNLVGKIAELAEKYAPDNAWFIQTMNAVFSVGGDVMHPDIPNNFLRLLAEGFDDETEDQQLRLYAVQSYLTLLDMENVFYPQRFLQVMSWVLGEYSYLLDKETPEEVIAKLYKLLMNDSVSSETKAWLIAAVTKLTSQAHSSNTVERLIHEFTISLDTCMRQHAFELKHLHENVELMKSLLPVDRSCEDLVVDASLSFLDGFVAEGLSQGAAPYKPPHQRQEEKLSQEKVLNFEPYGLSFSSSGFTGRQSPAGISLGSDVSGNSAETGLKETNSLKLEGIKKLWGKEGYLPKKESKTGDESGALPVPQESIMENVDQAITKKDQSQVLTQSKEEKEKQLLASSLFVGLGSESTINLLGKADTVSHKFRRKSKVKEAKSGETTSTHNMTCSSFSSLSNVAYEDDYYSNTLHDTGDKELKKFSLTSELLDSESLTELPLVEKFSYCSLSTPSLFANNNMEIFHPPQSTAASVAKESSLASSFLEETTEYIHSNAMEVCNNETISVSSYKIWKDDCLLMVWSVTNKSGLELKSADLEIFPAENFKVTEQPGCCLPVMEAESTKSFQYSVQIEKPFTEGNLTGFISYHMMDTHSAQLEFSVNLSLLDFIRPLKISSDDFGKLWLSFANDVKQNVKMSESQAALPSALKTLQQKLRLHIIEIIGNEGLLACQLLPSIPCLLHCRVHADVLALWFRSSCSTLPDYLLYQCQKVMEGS
Procedure, shortened: as §1

B1: LZTR1 R810W-FLAG (other, human, UniProt Q8N653 1-840, looked up)
chain: MAGPGSTGGQIGAAALAGGARSKVAPSVDFDHSCSDSVEYLTLNFGPFETVHRWRRLPPCDEFVGARRSKHTVVAYKDAIYVFGGDNGKTMLNDLLRFDVKDCSWCRAFTTGTPPAPRYHHSAVVYGSSMFVFGGYTGDIYSNSNLKNKNDLFEYKFATGQWTEWKIEGRLPVARSAHGATVYSDKLWIFAGYDGNARLNDMWTIGLQDRELTCWEEVAQSGEIPPSCCNFPVAVCRDKMFVFSGQSGAKITNNLFQFEFKDKTWTRIPTEHLLRGSPPPPQRRYGHTMVAFDRHLYVFGGAADNTLPNELHCYDVDFQTWEVVQPSSDSEVGGAEVPERACASEEVPTLTYEERVGFKKSRDVFGLDFGTTSAKQPTQPASELPSGRLFHAAAVISDAMYIFGGTVDNNIRSGEMYRFQFSCYPKCTLHEDYGRLWESRQFCDVEFVLGEKEECVQGHVAIVTARSRWLRRKITQARERLAQKLEQEAAPVPREAPGVAAGGARPPLLHVAIREAEARPFEVLMQFLYTDKIKYPRKGHVEDVLLIMDVYKLALSFQLCRLEQLCRQYIEASVDLQNVLVVCESAARLQLSQLKEHCLNFVVKESHFNQVIMMKEFERLSSPLIVEIVRRKQQPPPRTPLDQPVDIGTSLIQDMKAYLEGAGAEFCDITLLLDGHPRPAHKAILAARSSYFEAMFRSFMPEDGQVNISIGEMVPSRQAFESMLRYIYYGEVNMPPEDSLYLFAAPYYYGFYNNRLQAYCKQNLEMNVTVQNVLQILEAADKTQALDMKRHCLHIIVHQFTKVSKLPTLWSLSQQLLLDIIDSLASHISDKQCAELGADI
notes: Stably expressed in U87 cells by lentivirus; also called LZTR1-FLAG-R810W; LZTR1 RW; not shown: FLAG tag
B1: binds (UBE4B); binds (AP4E1).
